Data taken from paper PMC6179904 (Developmental Cell, 2018).
Where no end group is shown, it is not given here. The star is where a group is joined. Fluorescin = fluorescein label at the C-terminus, before the amide; Myristoyl = CCCCCCCCCCCCCC(=O)*

What follows are binders tested against full-length UNC119A (UniProt Q13432 1-240) (assay: fluorescence polarisation).

| Binder | Kd |
| --- | --- |
| Myristoyl-GSNKSKPKDASQ (also: fluorescein label, position not given here) [c-SRC (Myr-GSNKSKPKDASQ) fluorescein-labeled myristoylated peptide] | 125 ± 69 nM |
| Myristoyl-GNAAGSAEQPAG-{Fluorescin-NH2} [fluorescein-labeled myristoylated FMNL1 peptide (Myr-GNAAGSAEQPAG-Fluorescin-amide)] | 10.1 ± 3.5 nM |
| Myristoyl-GNLESAEGVPGE-{Fluorescin-NH2} [fluorescein-labeled myristoylated FMNL3 peptide (Myr-GNLESAEGVPGE-Fluorescin-amide)] | 856 ± 156 nM |
